Patent publication US20200010567A1 (NEURIMMUNE, published 2020)

Tests used:
Assay in all cases: indirect ELISA, coated His-tagged peptide
PA20: H-(PA)20HHHHHH-NH2 = target: T1, PA20: H-(PA)20HHHHHH-NH2 (C-terminal amide)
T1 peptide: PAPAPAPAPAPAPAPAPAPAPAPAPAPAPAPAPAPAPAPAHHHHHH
How it was run: (§1)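 His-tagged dipeptide-repeat peptides coated at 50 μg/ml in carbonate buffer pH 9.42; blocked with 2% BSA in PBS/0.1% Tween-20. Human antibodies titrated, 1 h at room temperature, detected with HRP anti-human IgG Fcγ by colorimetric read-out. EC₅₀ from non-linear regression.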

PA10: H-(PA)10HHHHHH-NH2 = target: T2, PA10: H-(PA)10HHHHHH-NH2 (C-terminal amide)
T2 peptide: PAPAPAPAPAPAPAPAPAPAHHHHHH
How it was run: as §1

PA6: H-(PA)6HHHHHH-NH2 = target: T3, PA6: H-(PA)6HHHHHH-NH2
T3 peptide: H-PAPAPAPAPAPAHHHHHH-NH2
How it was run: as §1

PA5: H-(PA)5HHHHHH-NH2 = target: T4, PA5: H-(PA)5HHHHHH-NH2
T4 peptide: H-PAPAPAPAPAHHHHHH-NH2
How it was run: as §1

GP10: H-(GP)10HHHHHH-NH2 = target: T5, GP10: H-(GP)10HHHHHH-NH2 (C-terminal amide)
T5 peptide: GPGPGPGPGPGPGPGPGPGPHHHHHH
How it was run: as §1

GR20: H-(GR)20HHHHHH-NH2 = target: T6, GR20: H-(GR)20HHHHHH-NH2 (C-terminal amide)
T6 peptide: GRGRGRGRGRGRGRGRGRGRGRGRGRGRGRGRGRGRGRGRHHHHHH
How it was run: as §1

GR10: H-(GR)10HHHHHH-NH2 = target: T7, GR10: H-(GR)10HHHHHH-NH2 (C-terminal amide)
T7 peptide: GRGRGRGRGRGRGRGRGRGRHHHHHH
How it was run: as §1

GR6: H-(GR)6HHHHHH-NH2 = target: T8, GR6: H-(GR)6HHHHHH-NH2
T8 peptide: H-GRGRGRGRGRGRHHHHHH-NH2
How it was run: as §1

GR5: H-(GR)5HHHHHH-NH2 = target: T9, GR5: H-(GR)5HHHHHH-NH2
T9 peptide: H-GRGRGRGRGRHHHHHH-NH2
How it was run: as §1

GR4: H-(GR)4HHHHHH-NH2 = target: T10, GR4: H-(GR)4HHHHHH-NH2
T10 peptide: H-GRGRGRGRHHHHHH-NH2
How it was run: as §1

GR3: H-(GR)3HHHHHH-NH2 = target: T11, GR3: H-(GR)3HHHHHH-NH2
T11 peptide: H-GRGRGRHHHHHH-NH2
How it was run: as §1

PR20: H-(PR)20HHHHHH-NH2 = target: T12, PR20: H-(PR)20HHHHHH-NH2 (C-terminal amide)
T12 peptide: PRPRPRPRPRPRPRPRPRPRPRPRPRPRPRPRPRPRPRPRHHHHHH
How it was run: as §1

PR10: H-(PR)10HHHHHH-NH2 = target: T13, PR10: H-(PR)10HHHHHH-NH2 (C-terminal amide)
T13 peptide: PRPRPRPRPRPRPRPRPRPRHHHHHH
How it was run: as §1

PR6: H-(PR)6HHHHHH-NH2 = target: T14, PR6: H-(PR)6HHHHHH-NH2
T14 peptide: H-PRPRPRPRPRPRHHHHHH-NH2
How it was run: as §1

B1: NI-308.4M1 (antibody, V domains shown)
VH: EVQLVETGGGVVQPGGSLRLSCEASGFTIGTYAMHWVRQFPGKGLDWVAVISFDGTTEYYTDAVKGRFTISRDNAKNTLYLQMNYLRGDDTAIYFCARDFTSSGETGSWTQVPDLWGQGTLVTVSS
VL: CEIVMTQSPATLSLSPGERATLSCRASQSVTKYLAWYQQKPGQAPRLLIYDVSYRAAGTPARFSGSGSGTDFTLTISSLEPEDFAVYYCHQRSSWPPVTFGGGTKVEIK
notes: Recombinant complete human IgG1, kappa
EC50 (PA20: H-(PA)20HHHHHH-NH2): 0.06 nM
EC50 (PA10: H-(PA)10HHHHHH-NH2): 0.06 nM
EC50 (PA6: H-(PA)6HHHHHH-NH2): 4.3 nM
EC50 (PA5: H-(PA)5HHHHHH-NH2): 26.9 nM

B2: NI-308.46E9 (antibody, V domains shown)
VH: QVQLQESGPGLVKPSETLSLTCTVSGASISGSTYYWGWIRQPPGKGLEYIGRIYYSGSTYYNPSLKSRATISVDTSKNQLSLTLSSVTAADTAVYYCVRPFYAGSGNSPFDYWGQGTLVTVSS
VL: CEIVLTQSPATVSVSPGERATLSCRASQSVSTNLAWYQQKPGQPPRLLIYGASTRATGIPARFSGSGSGAEFTLTISSLQSEDFVVYYCQQYNNWPPAFGGGTKVEIK
notes: as for B1
EC50 (GP10: H-(GP)10HHHHHH-NH2): 63.3 nM

B3: NI-308.6B11 (antibody, V domains shown)
VH: EVQLVQSGAEVKRPGASVKVSCKVSGYTLTELSMHWVRQAPGKGLEWMGGFDPEDGETVYAQKFQGRVTMTEDTSTDTAYMELSSLRSEDTALYHCATYGSSWHWNEGNEGSYYFDYWGQGTLVTVSS
VL: CDIQMTQSPSSLSASVGDRVTITCQASQDISIYLNWYQQKPGKAPKLLIYDASNLETGVPSRFSGSGSGTDFTFTISGLQPEDVARYYCQQYDDLPITFGQGTRLEIK
notes: as for B1
EC50 (GR20: H-(GR)20HHHHHH-NH2): 0.25 nM
EC50 (GR10: H-(GR)10HHHHHH-NH2): 1.3 nM
EC50 (GR6: H-(GR)6HHHHHH-NH2): 0.33 nM
EC50 (GR5: H-(GR)5HHHHHH-NH2): 0.47 nM
EC50 (GR4: H-(GR)4HHHHHH-NH2): 13.2 nM
EC50 (GR3: H-(GR)3HHHHHH-NH2): 14.3 nM

B4: NI-308.24E11 (antibody, V domains shown)
VH: QVQLQESGPGLVKPSETLSLTCTVSTTSLRSYFWSWIRQPPGKGLEWIGYVYYSGSTIYNPSLKNRVTISIDTSKNQFSLNLRSVTAADTAMYFCARGVPAETDARDFPPYYFDHWGQGTLVTVSS
VL: CDIQLTQSPSSLSASVGNRITFTCQASQDIRYYLNWYQQKPGKAPKLLIYDVSNLDTGVPPRFSGSGSGTNFTFTISSLQPEDIAVYYCQQYEGLPVTFGGGTKVEIK
notes: as for B1
EC50 (PR20: H-(PR)20HHHHHH-NH2): 11.3 nM
EC50 (PR10: H-(PR)10HHHHHH-NH2): 31.7 nM
EC50 (PR6: H-(PR)6HHHHHH-NH2): > 200 nM
